One experiment deals with gut microbiome. The experiment in a line: Gut microbiome by 16S next generation sequencing, infection and thermal injury model. It counts as in vivo, Balb/c mice. The protocol: (§1) Mice were intraperitoneally (i.p.) challenged with 1×10^7 CFU of an intestinal isolate E. coli (EC) and 1000 ng of flagellin then treated i.p. with 500 pg rCST9 and/or 50 pg rCSTC followed by a 30% full-thickness thermal injury (30% TBSA). […] Additional groups of infected, rCST treated and/or thermally injured mice were euthanized at 24 and 48 h post-thermal injury to collect serum and harvest intestinal samples. Cytokines were quantified in the serum and analysis of the gut microbiome.
Gut samples were harvested at 24 and 48 h from the same 4 mouse groups euthanized to collect sera as described above. As we reported in a previous publication (8), briefly, approximately 3 mm^3 pieces of the intestine (close to the cecum) were sterilely harvested from each mouse. For gut microbiome analysis, DNA from intestinal samples was extracted from samples lysed in MagNA Pure DNA Tissue Lysis Buffer followed by automated extraction on a MagNA Pure 96 platform (Roche). The isolated DNA was amplified using a panel of five “universal” primer pairs (Ion Xpress Barcodes) that created overlapping 400 bp DNA fragments covering 95% of the bacterial 16S rDNA. Barcoded amplimers were mixed at equimolar ratios and then subjected to Ion Torrent NGS (Thermo Scientific). Average read length was >300 bases with sequence generated from both strands. Reads were filtered and binned according to Ion Xpress barcode with Ion Torrent Suite software (v 4.0.2). Sequencing reads were then further processed using Galaxy software where each barcode was trimmed to remove the primer sequence. The 16S sequences were compared to the SILVA database using bowtie 2 software to yield species or genera level matches to return the hit-rate. Where multiple calls to the same genera were made the number of hits were added accordingly. Hit rates were converted to percentage of total to give an overall ratio of the sequenced microbiome.

Experiment [1] deals with Pseudomonas aeruginosa (isolate from burn patient wound). The experiment in a line: Viability and virulence of pathogenic bacterial strains. To be noted: 50 pg dose. The experiment is classed as cell-based.
Experiment [2] relates to Burkholderia thialandensis (ATCC). Described as above. The experiment is classed as cell-based. To be noted: 50 pg dose.
For a further experiment, the system named is E. coli O157:H7 (ATCC). Described as above. The experiment is classed as cell-based. To be noted: 50 pg dose.
The subject of experiment [3] is human monocyte-derived macrophage (MDM). The experiment in a line: Macrophage killing of pathogens. It counts as cell-based. The settings on record: same five pathogens.
Experiment [4] has as its system Salmonella typhimurium (ATCC). The experiment in a line: Viability and virulence of pathogenic bacterial strains. The experiment is classed as cell-based. To be noted: 50 pg dose.
Experiment [5] relates to Klebsellia pneumoniae (isolate from burn patient lung). The description is as above. It counts as cell-based. The settings on record: 50 pg dose.
A further experiment concerns EC 083:H1 and flagellin. The experiment in a line: Mouse model of infection and thermal injury, survival. It counts as in vivo, Balb/c mice. To be noted: i.p. 500 pg rCST9 and/or 50 pg rCSTC; 1000 ng flagellin + 1×10^7 CFU EC 083:H1 i.p.; 30% TBSA burn; observed 10 days. The protocol:
as §1
Female Balb/c mice (n=6 mice/group), weighing 19-21 grams (Jackson Laboratories), were housed in a facility approved by the Association for Assessment and Accreditation for Laboratory Animal Care (AAALAC). Mice were allowed to adjust to their environment for at least seven days prior to the study and given access to food and water throughout the entire study. All animal procedures were approved by University of Texas Medical Branch IACUC and performed humanely with minimal suffering. Briefly, mice were shaved dorsally the morning of experimentation as previously described (8). The mice were given an i.p. challenge of 1000 ng of flagellin and 1×10^7 CFU/mouse of EC 083:H1 and then treated with 500 pg of rCST9 and/or 50 pg of rCSTC. Immediately following treatment, mice were anesthetized with pentobarbital (Nembutal) and subjected to a 30% total body surface area (TBSA) burn injury. […]

Where [6] appears, read: individual treatment, 24 and 48 h post-burn.

B1: rCSTC: human recombinant cystatin C (CST3), cysteine proteinase inhibitor; purchased from R&D Systems (protein, UniProt P01034 27-146, looked up)
Cystatin-C: SSPGKPPRLVGGPMDASVEEEGVRRALDFAVGEYNKASNDMYHSRALQVVRARKQIVAGVNYFLDVELGRTTCTKTQPNLDNCPFHDQPHLKRKAFCSFQIYAVPWQGTMTLSKSTCQDA
For B1, in the experiment on gut microbiome (24 h post-burn), the “Bacteroidales S24-7 in gut microbiome” value was “noticeable but moderate increase”. The “Lachnospiraceae family in gut microbiome” value in the experiment on gut microbiome (24 h post-burn) is given as “proportionate decrease”. Besides, the gut microbiome profile entry is “nearly equivalent to sham controls” in the experiment on gut microbiome (48 h post-burn) and “preserved the gut microbiome that was equivalent to sham controls” in the experiment with gut microbiome (setting [6]).

B2: rCST9: human recombinant cystatin 9, cysteine proteinase inhibitor; purchased from American Research Products, Inc. (protein, UniProt Q5W186 29-159, looked up)
Cystatin-9: WCSEEEMGGNNKIVQDPMFLATVEFALNTFNVQSKEEHAYRLLRVLSSWREDSMDRKWRGKMVFSMNLQLRQTVCRKFEDDIDNCPFQESLELNNVRQGISFPQVHSCGCCMGCGVGTGAADKAIPRDKGK
As for B2, the viability and virulence entry was “retarded the viability and virulence” in experiment [1]; “retarded the viability and virulence” in experiment [2]; “retarded the viability and virulence” with E. coli O157:H7 (ATCC); “retarded the viability and virulence” in experiment [4]; “retarded the viability and virulence” in experiment [5]. Further, the “MDM killing of pathogens” value in experiment [3] is listed as “induced human monocyte-derived macrophage (MDM) killing”. Besides, the survival entry with EC 083:H1 and flagellin is “did not improve survival”. In the experiment on gut microbiome (setting [6]), the gut microbiome profile result is “preserved the gut microbiome that was equivalent to sham controls”.

Values taken from patent US12053511B2, “Cystatin C and Cystatin 9 to treat gut inflammation caused by thermal injury” (priority 2016, dated 2024).
